The values below come from US20190083612A1 (RINAT NEUROSCIENCE, published 2019).

As usually defined, the Kd is the constant that tells how readily two partners part at equilibrium. The kon is the rate constant with which the complex forms. As a reminder, the koff is a measure of how fast the partners let go of each other.

Positions count from the first letter of the chain named.

Experiment [1] concerns the target T1, rat PD-1 on primary rat T cells (rat, UniProt D3ZIN8 25-287).
T1 sequence: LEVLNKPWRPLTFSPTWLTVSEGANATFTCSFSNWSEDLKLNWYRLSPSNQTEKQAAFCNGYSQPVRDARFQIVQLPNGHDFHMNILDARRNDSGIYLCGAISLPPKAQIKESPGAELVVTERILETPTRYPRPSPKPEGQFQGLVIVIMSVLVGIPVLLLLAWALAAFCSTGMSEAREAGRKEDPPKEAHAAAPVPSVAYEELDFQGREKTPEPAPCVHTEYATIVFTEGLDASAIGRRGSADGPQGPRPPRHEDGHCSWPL
Put plainly: FACS, naive primary rat T cells. On the technique in general: Flow cytometry measures light scatter and fluorescence of single cells or particles in a stream.

Experiment [2] has as its target human PD-1 on primary human T cells (human) (UniProt Q15116). Put plainly: FACS, naive primary human T cells.
In experiment [3] the target is T1, rat PD-1 on primary rat T cells. Put plainly: FACS, activated primary rat T cells.
The target of experiment [4] is human PD-1 on primary human T cells (human) (UniProt Q15116). Put plainly: FACS, activated primary human T cells.
The target of experiment [5] is cynomolgus monkey PD-1 on primary cynomolgus monkey T cells (cynomolgus monkey) (UniProt B0LAJ3). Put plainly: FACS, naive primary cynomolgus monkey T cells.
Experiment [6] shares this target. Put plainly: FACS, activated primary cynomolgus monkey T cells.
Experiment [7] addresses human PD-1 on primary human T cells (human) (UniProt Q15116). Put plainly: cell-based or functional assay.
Experiment [8] concerns the target T2, human PD-1 (hPD-1) monomer (human, UniProt Q15116 25-167).
T2 construct: also called hu-PD-1; not shown: His tag (His-tagged monomer)
Put plainly: SPR, human PD-1, 25 C. Background: SPR reads the build-up and loss of mass on a sensor chip optically.

Experiment [9] addresses T3, hPD-1-hFc1 (R&D systems cat. no. 1086PD) (human, UniProt Q15116 25-167).
T3 construct: Bought; not shown: human IgG1 Fc (hFc1)
Put plainly: SPR (Biacore 2000), Fab over anti-hFc-captured PD-1-hFc1, 25 C. Here is the method:
(§1) All interaction analysis was performed on label-free biosensors at 25° C. unless stated otherwise. Surface plasmon resonance biosensors (ProteOn-XPR™ from BioRad™, and Biacore 2000™ and Biacore T200™ from GE Life Sciences) were used to study human and cynomolgus monkey PD-1 and a biolayer interferometry biosensor (Octet-Red384, Fortebio/Pall Life Sciences) was used to study mouse PD-1. ProteOn experiments were performed in PBS pH 7.4+0.01% Tween-20 (PBST) running buffer. Biacore experiments were performed in 10 mM Hepes pH 7.4, 150 mM NaCl, 0.05% Tween-20 (HBST+) and Octet experiments were performed in HBST+ with 1 g/l BSA. The ProteOn data were processed in the ProteOn Manager software, the Biacore data were processed in Biaevaluation, and the Octet data were simply aligned to zero in the control software.
(§2) An anti-hFc polyclonal antibody was amine-coupled to the chip and used to capture approximately 90 RU hPD-1-hFc1 and 125 RU cynoPD-1-hFc1 on flow cells 2 and 3, leaving flow cell 1 blank (naked anti-hFc capture surface) to provide a reference channel. Recombinant purified Fabs were injected for two min as analyte at 0, 10, and 100 nM over freshly captured PD-1-hFc1 fusion proteins, allowing a 15-min dissociation time.

The target of experiment [10] is T4, cynoPD-1-hFc1 (prepared in-house) (cynomolgus monkey; human, UniProt B0LAJ3 25-170). The experiment is described as above. Here is the method:
as §1, §2

For experiment [11], the target named is T3, hPD-1-hFc1 (R&D systems cat. no. 1086PD). Put plainly: SPR (Biacore 2000), Fab over anti-hFc-captured PD-1-hFc1, 25 C; 5% rule. Here is the method: as §2
The target in experiment [12] is T4, cynoPD-1-hFc1 (prepared in-house). The description is as above. As for the experimental part: as §2
Experiment [13] addresses T2, human PD-1 (hPD-1) monomer. Put plainly: SPR (ProteOn), hPD-1 monomer over amine-coupled IgG, 25 C. Here is the method:
as §1
(§3) The surfaces for these experiments were prepared in three steps; (1) the ligand channels were minimally activated for two min using a freshly prepared mixture of the activation reagents at final 0.8 mM EDC and 0.2 mM sulfo-NHS in water, (2) the IgGs were coupled for three min at 15 μg/ml in 10 mM sodium acetate pH 4.5, and (3) excess reactive esters were blocked for three min with 1 M ethanolamine HCl pH 8.5. […] Association and dissociation times were 3 min and 20 min, respectively and all analytes were injected in duplicate binding cycles. Surfaces were regenerated with a cocktail of 2:1 v/v Pierce IgG elution buffer (pH 2.8):4 M NaCl.

Experiment [14] deals with T2, human PD-1 (hPD-1) monomer. Put plainly: SPR (ProteOn), hPD-1 monomer over amine-coupled IgG, 25 C; 5% rule. Here is the method:
as §3
N=2 refers to two independent experiments on different chips.

The target of experiment [15] is T2, human PD-1 (hPD-1) monomer. Put plainly: SPR (Biacore T200), hPD-1 monomer over anti-hFc-captured hIgG4, 25 C. As for the experimental part: as §1
(§4) The hPD-1 was injected at active concentrations of 0, 10, and 100 nM for three minutes allowing an 18-min dissociation phase. The capture surfaces were regenerated with 75 mM phosphoric acid after each binding cycle.

Experiment [16] has as its target T2, human PD-1 (hPD-1) monomer. Put plainly: SPR (Biacore T200), hPD-1 monomer over anti-hFc-captured hIgG4, 37 C. Here is the method: as §4

human PD-1 on primary human T cells (human), sequence (Q15116 25-288 limits assumed): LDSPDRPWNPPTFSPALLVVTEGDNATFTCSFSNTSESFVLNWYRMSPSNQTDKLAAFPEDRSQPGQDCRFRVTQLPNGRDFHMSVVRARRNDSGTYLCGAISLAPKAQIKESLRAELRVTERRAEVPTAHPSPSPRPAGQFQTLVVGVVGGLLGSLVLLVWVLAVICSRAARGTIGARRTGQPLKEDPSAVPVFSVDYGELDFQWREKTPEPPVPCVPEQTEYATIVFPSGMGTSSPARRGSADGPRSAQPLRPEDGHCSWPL
T4 sequence (B0LAJ3 entry or part of it limits assumed): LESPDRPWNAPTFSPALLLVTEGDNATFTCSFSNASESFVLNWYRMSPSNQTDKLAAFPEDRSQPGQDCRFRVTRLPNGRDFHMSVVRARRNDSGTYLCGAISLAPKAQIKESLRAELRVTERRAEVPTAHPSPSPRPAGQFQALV
T2 sequence (Q15116 25-167 limits assumed): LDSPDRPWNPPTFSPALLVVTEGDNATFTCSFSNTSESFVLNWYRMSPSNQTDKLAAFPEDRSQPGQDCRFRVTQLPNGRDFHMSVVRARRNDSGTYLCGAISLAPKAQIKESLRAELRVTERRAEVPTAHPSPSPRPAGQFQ
T3 sequence (Q15116 25-167 limits assumed): as above
cynomolgus monkey PD-1 on primary cynomolgus monkey T cells (cynomolgus monkey), sequence (B0LAJ3 entry or part of it limits assumed): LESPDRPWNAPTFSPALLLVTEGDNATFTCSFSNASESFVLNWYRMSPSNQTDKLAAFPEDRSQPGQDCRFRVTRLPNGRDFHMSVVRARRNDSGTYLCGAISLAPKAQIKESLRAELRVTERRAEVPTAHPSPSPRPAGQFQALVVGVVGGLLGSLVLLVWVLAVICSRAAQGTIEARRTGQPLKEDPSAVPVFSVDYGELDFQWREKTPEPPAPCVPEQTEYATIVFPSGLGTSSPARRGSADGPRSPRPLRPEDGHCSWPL

For the molecule “Negative control antibody (anti-bovine herpes virus, IgG4-HG framework)”, the % Binding amounted to 0.82% in experiment [1]; 3.49% in [2]; 4.36% in experiment [3]; 4.75% in experiment [4]; 5.38% in experiment [5]; 4.67% in [6].

Take “EH12.1 (BD Biosciences mouse anti human anti-PD-1 antibody, mouse isotype IgG1 Kappa)”: in experiment [7], the IFNγ (pg/ml), MLR day 5, antibody 0.0001 µg/ml stood at 1700 pg/mL; the IFNγ (pg/ml), MLR day 5, antibody 0.001 µg/ml came out at 2280 pg/mL; the IFNγ (pg/ml), MLR day 5, antibody 0.01 µg/ml stood at 4380 pg/mL; the IFNγ (pg/ml), MLR day 5, antibody 0.1 µg/ml turned out to be 4730 pg/mL. In addition, in experiment [7], the IFNγ (pg/ml), MLR day 5, antibody 1 µg/ml is 9910 pg/mL; the IFNγ (pg/ml), MLR day 5, antibody 10 µg/ml was found to be 15100 pg/mL; the TNF (pg/ml), MLR day 5, antibody 0.0001 µg/ml was 753 pg/mL; the TNF (pg/ml), MLR day 5, antibody 0.001 µg/ml was determined as 687 pg/mL. In experiment [7], this molecule yielded a TNF (pg/ml), MLR day 5, antibody 0.01 µg/ml of 859 pg/mL; a TNF (pg/ml), MLR day 5, antibody 0.1 µg/ml of 745 pg/mL; a TNF (pg/ml), MLR day 5, antibody 1 µg/ml of 979 pg/mL; a TNF (pg/ml), MLR day 5, antibody 10 µg/ml of 1950 pg/mL.

B1: mAb2 (antibody, V domains shown)
VH: QVQLVQSGAEVKKPGASVKVSCKASGYTFTSYWINWVRQAPGQGLEWMGNIYPGSSLTNYNEKFKNRVTMTRDTSTSTVYMELSSLRSEDTAVYYCARLLTGTFAYWGQGTLVTVSS
VL: DIVMTQSPDSLAVSLGERATINCKSSQSLWDSGNQKNFLTWYQQKPGQPPKLLIYWTSYRESGVPDRFSGSGSGTDFTLTISSLQAEDVAVYYCQNDYFYPLTFGGGTKVEIK
notes: Variable regions only
In [8], B1 displayed a Kd of 2.22 nM.

B2: mAb7 Fab (Fab, V domains shown)
VH: B1 VH with L100S
VL: B1 VL with L102H
As for B2, the Kd is below 0.101 nM in experiment [9] and below 0.108 nM in experiment [10]. Besides, the kon in [9] was determined as 567000 M⁻¹ s⁻¹; in experiment [10], 526000 M⁻¹ s⁻¹. The koff in [11] and in [12] was below 5.7e-05 s⁻¹ each time.

B3: mAb8 (antibody, V domains shown)
VH: B1 VH with L100S
VL: B1 VL with G33T, Y59T
notes: Variable regions only
B3 displayed a Kd in experiment [8] of 17.4 nM.

B4: mAb15 (human IgG4 kappa, hinge stabilized) (antibody, V domains shown)
VH: B1 VH with Y52W
VL: B1 VL with L102H
notes: also called mAb15-G4; mAb15 (G4)
Turning to B4, the Kd is 0.49 nM in experiment [8], below 0.058 nM in [13], 0.49 nM in experiment [15] and 0.54 nM in experiment [16]. In addition, the kon came to 732000 M⁻¹ s⁻¹ in [13], 349000 M⁻¹ s⁻¹ in experiment [15] and 694000 M⁻¹ s⁻¹ in experiment [16]. Also, the results for the koff in experiment [14], in [15] and in experiment [16] were below 4.3e-05 s⁻¹, 0.000171 s⁻¹ and 0.000373 s⁻¹, respectively.

B5: mAb15 Fab (Fab, V domains shown)
VH: B1 VH with Y52W
VL: B1 VL with L102H
For the molecule B5, the Kd was below 0.062 nM in experiment [9] and below 0.069 nM in [10]. The kon was determined as 916000 M⁻¹ s⁻¹ in experiment [9] and 824000 M⁻¹ s⁻¹ in [10]. For the same molecule, the koff in experiment [11] and in experiment [12] was below 5.7e-05 s⁻¹ in each case.

B6: mAb3 (antibody, V domains shown)
VH: B1 VH
VL: B1 VL with L102H
notes: Variable regions only
B6 displayed a Kd in [8] of 1.43 nM.

B7: mAb7 IgG1 AAA (antibody, V domains shown)
VH: B1 VH with L100S
VL: B1 VL with L102H
notes: also called mAb7-AAA
As for B7, in experiment [13], the Kd was below 0.086 nM and the kon came to 497000 M⁻¹ s⁻¹. The koff in [14] is below 4.3e-05 s⁻¹.

B8: mAb9 (antibody, V domains shown)
VH: B1 VH with L57I, L100T
VL: B1 VL with Y59T
notes: Variable regions only
B8: the Kd in experiment [8] amounted to 13.5 nM.

B9: mAb13 (antibody, V domains shown)
VH: B1 VH with Y52W
VL: B1 VL with Y59T
notes: Variable regions only
As for B9, binding in [8] was characterised by a dissociation constant (Kd) of 5.87 nM.

B10: mAb12 (antibody, V domains shown)
VH: B1 VH with L57I, L100T
VL: B1 VL with G33T, Y59T
notes: Variable regions only
With B10, the Kd in experiment [8] came to 17.3 nM.

B11: mAb11 (antibody, V domains shown)
VH: B1 VH with L57I, L100T
VL: B1 VL with L102H
notes: Variable regions only
For B11, binding in experiment [8] was put at a Kd of 0.93 nM.

B12: mAb14 (antibody, V domains shown)
VH: B1 VH with Y52W
VL: B1 VL
notes: Variable regions only
B12: the Kd in experiment [8] was determined as 0.6 nM.

B13: mAb10 (antibody, V domains shown)
VH: B1 VH with L57I, L100T
VL: B1 VL
notes: Variable regions only
In turn, B13 displayed a Kd in experiment [8] of 0.98 nM.

B14: mAb16 (antibody, V domains shown)
VH: B1 VH with Y52W
VL: B1 VL with G33T, Y59T
notes: Variable regions only
The molecule B14 returned a Kd in experiment [8] of 7.51 nM.

B15: mAb6 (antibody, V domains shown)
VH: B1 VH with L100S
VL: B1 VL
notes: Variable regions only
B15 registered a Kd in [8] of 1.16 nM.

B16: mAb1 (antibody, V domains shown)
VH: B1 VH
VL: B1 VL with Y59T
notes: Variable regions only
B16 gave a Kd in [8] of 64.2 nM.

B17: mAb5 (antibody, V domains shown)
VH: B1 VH with L100S
VL: B1 VL with Y59T
notes: Variable regions only
With B17, binding in [8] was put at a Kd of 12.8 nM.

B18: mAb15 IgG1 AAA (antibody, V domains shown)
VH: B1 VH with Y52W
VL: B1 VL with L102H
notes: also called mAb15-AAA
In [13], B18 returned a Kd below 0.053 nM and a kon of 813000 M⁻¹ s⁻¹. The koff in [14] is below 4.3e-05 s⁻¹.
